According to the nanobody polyreactivity screen of Harvey et al. (2022):

Test: yeast display, Sf9 membrane polyspecificity reagent, FACS + sequencing; frameworks hold sequencing errors
How it was run: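 Sorting gates, low and high (top ~1%), were placed on anti-HA fluorescence to track expression and on streptavidin fluorescence to track reagent binding. A clone's polyreactivity label is taken from the gate it came out of. The reagent was 10% biotinylated, detergent-solubilized Sf9 membrane, applied for 1 hour at 4 °C to galactose-induced yeast display cells.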

Row | Sequence | polyreactivity (PSR sort gate)
1 | QVQLVESGGGLVQAGGSLRLSCAASGSIIGYYAMGWYRQAPGKECEFVAAITRSGARTYYADSLKGRFTISRDNAKNTVYLQMNSLKPEDTAVYYCAAGAYYRYTIEYDYWGQGTQVTVSS | high polyreactivity
2 | QVQLVESGGGLVQAGGTLSLSCAASGRTFVSYTMGWYRQAPGKERELVAAINYSVASTNYADSVKGRFTISRDNAKNSVYLQMNSLKPEDTAVYYCNRASAVWGQGTQVTVSS | low polyreactivity
3 | QVQLVESGGGLVQAGGSLRLSCAASGITFNNNGMGWYRQAPGKERELVASIRSGGRTNYADSVKGRFTISRDNAKNTVYLQMNSLKPEDTAVYYCAAVWYTSRQKYDYWGQGTQVTVSS | low polyreactivity
4 | QVQLVESGGGLVQAGGSLRLSCAASGSTFYNNAMGWYRQAPGKERELVATISASSTSTYYADSVKGRFTISRDNAKNTVYLQMNSLKPEDTAVYYCAKDYVHGSTYGYYWYGYDYWGQGTQVTVSS | low polyreactivity
5 | QVQLVESGGGLVQAGGSLRLSCAASGGIFFSYAMGWYRQAPGKERELVAAIRTNGGTTYYADSVKGRFTISRDNAKNTVYLQMNSLKPEDTAVYYCAALPGGYYDRGEYDYWGQGTQVTVSS | low polyreactivity
6 | QVQLEETGGGLVQAGGSLPLSCAASGRTFRFYTMGWYRQAPGKERELVAVISNGGSTNYADSVKGRFTISRDNANTTVYLQMNSLKPEDTAVYDCAAGWVWSGNDYYYWGQGTQVTVSS | low polyreactivity
7 | QVQLVESGGGLVQAGGSLRLSCAASRSNFQFYAMGWYRQAPGTERELVAVISTRGGSTYYADSVKGRFTISRDKAKNTVYLQMYSLKPEDTAVYYCAAKSVYRMGYWGQGTQVTVSS | high polyreactivity
8 | QDQLVESGGGLVQAGGGLRLSCAASVRTFSKYTMGWYRQAPGKERELVAAISYSGGSTYYADSVKGRFTISRDNAKNTVYLQMNSLKPEDTAVYYCAARASTYKYYYWGQGTQVTVSS | high polyreactivity
9 | QVQLVESGGGLVQAGGSLRLSCAASGSIFNSYDMGWYRQAPGKERELVAAIRSRVGSTYYADSVKGRFTISRDNAKNSVYLQMNSLKQEDTAVYYCIKDNAVDRLPWFQVTYDYWGQGTQVTVSS | low polyreactivity
10 | QVQLVESGGGLVQAGGSLRLTCAASGSILYYNAMGWYRQAPGKEREFVAAISDSGSSTYYADSVKGRFTISRDNAKNTVYLQMNSLKPEDTAVYYCNAYQGDKYDSWGQGTQVTVSS | low polyreactivity
11 | QVQLVESGAGLVQEGGSLRLSCAASGSIFVGNAMGWYRQAPGKERELVATISWSGGSTYYADSVKGRFTISRDNAKNTVYLQMNSLKPEDTAVYYCAKTPYRRYRYGGYTYRTYDYWGQGTQVTVSS | low polyreactivity
12 | QVQLVESGGGLVQAGGSLRLSCAASGFIFPVYAMGWYRQAPGKERELVAAIRRGGSTNYADSVKGRFTISRDNAKNTVYLQMNSLKPEDTAVYYCAVEYQSPDDYWGQGTQVTVSS | low polyreactivity
13 | QVQLVESGGGLVQAGGSLRLSCAASGSTFGTYAMGWNRQATWKERELVAAITYSTGNTYYADSVKGRFTISRDNAKNNVYLQMNSLKPEDTAVYYCALEFGYYYFWMDYWGQGTQVTVSS | high polyreactivity
14 | QVQLVESGGGVVQAGGSLRLSCAASGLIFRRYAMGWYRQAPGIERELVAAISGNGGSTYYADSVKGRFTISRDKAKNTVYVQMNCLKPEDTAVYYCAARSLGIYNYWGQGTQVTVSS | high polyreactivity
15 | QVQLVESGGGLVQAGGSLRLSCAASGITFYRYAMGWYRQAPGKERELVAAINSSGGNTYYADSVKGRFTISRDNAKNTVYLQMNSLKPEDTAVYYCAADRVSWVKHYYWGQGTQVTVSS | high polyreactivity
16 | QVQLVESGGGLVQAGGSLRLSCAASGRTFWSYAMGWYRQAPGKERELVAAINSSGDSTYYADSVKGRFTISRDNAKNTVYLQMNSLKPEDTAVYYCAADGGLLAGSDATVRMDYWGQGTQVTVSS | low polyreactivity
17 | QVQLVESGGGLVQAGGSLRLSCAASGSIFVPYAMGWYRQAPGKERELVAAISSSTASTYYADSVKGRFTISRDNAKNTVYLQMNRLKPEETAVYYFNAEQWDYGVRVAHYDYWGQGTQVTVSS | low polyreactivity
18 | QVQLVESGGGLVQAGGSLRLSCAASGFTFRRNAMGWYRQAPGKERELVAAISSGGGTYYADSVKGRFTISRDNAKNTLYLQMNSLKPEETAVYYCNAAGQVRKYGYWGQGTEVTVSS | high polyreactivity
19 | QVQLVESGGGLVQAGGSLRLSCAASGRIFPRNAMGWYRQAPGKERELVASITSGGSTNYADSVKGRFTNSRDNAKNTVYLQMNSLKPEDTAVYSCAALYRQVTSPYRYYYWGQGTQVTVSS | high polyreactivity
20 | QVQLVESGGGIVQAGGSLRLICAASGRIFPYNVMGWYRQAPGKERELVAAISSGGTTDYADSVKGRFTISRDNAKNTVYLQMNSLKPEDTAVYYCAATYVYWTWGYDYWGQGTQVTVSS | low polyreactivity
21 | QVQLVESGGGLVQAGGSLRLSCAASGSILVNNAMGWYRQAPGKERELVAAISRSGTRTFYADSVKGRFTISRENAKNTVYLQMNSLKPEDTAVYYCAVDYYYRMDYWGQGTQVTVSS | high polyreactivity
22 | QVQLVESGGCLVQAGGSLRLSCAASRITFRWYAMGWYRQAPGKDRELVAAISRSGASTYYADSVKGRFTISRDNAKNTVYLQMNSLKPEDTAVYYCAKEKTTYYWATYDYWGQGTQVTVSS | high polyreactivity

Row | Sequence | polyreactivity (PSR sort gate)
23 | QVQLVESGGGLVQAGGSLRLSCAASGRIFGFNARGWYRQAPGKERELVAGITDSSGRTNYADSVKGRFTISRDNAKNTVYLQMNSLKPEDTAVYYCARRRFGQYTERYYWGQGTQVTVSS | low polyreactivity
24 | QVQLVESGGGLVQAGGSLRLSCAASGSTFLKYAMVWYRQAPGKERELVAAITSDGTTYADSVKGRFTISRDNAKNTVYLQMNSLKPEDTAVYYCAKDYRHPTFDYWGQGTQVTVSS | low polyreactivity
25 | QVQLVESGGGLVQAGGSLRLSCAASGSTFWKYAMGWYRQAPGKERELVASIRSGGSTYYADSVKGRFTISRDNAKNTVYLQMNSLKPEDTAVYYCAAVTHGRYDWGQGTQVTVSS | high polyreactivity
26 | QVQLVESGGRLVQAGGSHRIRCAASGFIFWYYAMGWYRPAPGKERELVAGITTGGSTNYADSVKGRFTISRDNAKNTVYLEMNSLKPEDTAVYYCNADPTYQVGYDYWGQGTQVTVSS | low polyreactivity
27 | QVQLVESGGGLVQAGGSLRLSCAASGSIFGSYAMGWYRQAPGKERELVAAISYRGGRTYYADSVKGRFTISRDNAKNTVYLQMNSLKPEDTAVYYCNARARNSPPYDYWGQGTQVTVSS | high polyreactivity
28 | QVQLVESGGGLVQAGGSLRLSCAASGILFSAHAMGWYRQAPGKERELVAAISKSGSRTYYADSVKGRFTISRDNAKNTVYLQMNSLKPEDTAVYYCNAVTYSRRYAYYYWGQGTQVTVSS | high polyreactivity
29 | QVQLVESGGALVQAGGSLRLSCAACGRTFWYNAMGWYRQAPGKERELVAAITRGGGRTYYADSVKGRFTISRDNAKNTVYLQMNSLKPEDTAVYYCAADSYYDMNYWGQGTQVTVSS | low polyreactivity
30 | QVQLVESGGGLVQAGGSLRLSCAASGSTLIVYAMGWYRQAPGKEREFVAGITVSTGSTYYADSVKGRFTISRDNAKNTVYLQMNSQKPEDTAVYYCAADIRDGWDYFLFWEDGMDYSGQGTQVTVSS | low polyreactivity
31 | QVQIVESGGGLVQAGGSLRLSCAASGRTFAWYAMGWYRQAPGKERELVAAITWSGGSTYYADSVKGRFTISRDNAKNTVYLQMNSLKPEETAVYYCAARTVVGWYSRYCYWGQGTQVTVSS | low polyreactivity
32 | PVQLVDSGGGLVQAGGSLRLSCAASGRTFGWYAMGWYRQAPGKERELVAAIRGVRTHYADSVKGRFTISRDNAKNTVYLQMNSLKPEDTAVYYCAARYYRWTKSEYGYWGQGTQVTVSS | high polyreactivity
33 | QVQLVESGGGLVQAGGSLRLSCADSGITFDANTMGWYRQAPGKERELVAVITDTGSTNYADSVKGRFTISRDNAKNTVYLQMNSLKPEDTAVYYCNADAEPSSGTSANNDYWGQGTQVTVSS | low polyreactivity
34 | QVQLVESGGGLVQAGGSLRLSCAASGRIFTPYAMGWYRQAPGKERELVAAISSSGGSTYYADSVKGRFTISRDNAKNTVYLQMNSLKPEDTAVYYCAAVHYRHVRYDYWGQATQVTVSS | high polyreactivity
35 | QVQLVESGARLVQEGGSLRLSCAASGSIFGRYVMGGYRQEPGKEREFVAAITYSGSSTYYADSVKGRFTISRDNAKNTVYLQMNSLKPEDSAVYYCNTYPGSFYWMGYWGQGTQVTVSS | high polyreactivity
36 | QVQLVESGRGIVQAGGSLRLSCAASGSTLNDYAMGSSRPAPGKERELVAAINGSGGSTYYADSVKGRFTISRDNAKNTVYLQMNSLKPEDTAVYYCAAATTHRRRYGYWGQGTQVTVSS | low polyreactivity
37 | QVQLVESGGCLVQAGGSLRLSCAASGSTFTIYVMGGYRQAPGKERELVAAITWSDGITYYADSVKGRFTISRDNAKNTVYLQMNSLKPEDTAVYYCRDSHPSYRPGTVRYDYWGQGTQVNVSS | low polyreactivity
38 | QVQLVESGGGLVQAGGSLRLSCAASGSIFTYYAMGWYRPEPGKERELVAAISRRGTRTYYADSVKGRFTISRDNAKNTVYLQMNSLKPEDTAVYYCAAEYTETGTAKMEYWGQGTQVTVSS | high polyreactivity
39 | QVKLVESGGGLVQAGGSLRLSCAASGRIFIEYARGWYRQAPGKERELVASSTSSGGRTTYADSVKGRFTISRDNAKNTVYLQINSLKPEDTAVYYCNKDYYPRGHTRFGYWGVGTQVTVSS | low polyreactivity
40 | QVQLVESGGGLVQAGGSLRLTCAASGRIYTYNAMGRYRKAPGKERELVATITWRGGGTYYADSVKGRFTISRDNAKNTVYLQMNSLKPEDTAVYYCIRRLPGDGQYGYRRFDYWGQGTQVTVSS | low polyreactivity
41 | QVQLVESGGGLVQAGGSLRLSCAASGRTFFYYAMGWYRQSPGKERELVATITGIGGSTYADSVKGRFTISRDNAKNTVYLQMNSLKPEDTAVYYCNAERGVYWGRYPYKYDYWGQGTQVTVSS | low polyreactivity
42 | QVQLVESGGGLVQAGGSLRLSCAASGLIFRYNAMGWSRQAPGKERELVAAISRSGGTTYYADSVKGRFTISRDNAKNTVYLQMNSLKPEDTAVYYCATRISQSYYNYGYWGQGTQVTVSS | high polyreactivity
43 | QVQLVESGGGLVQAGGSLRLSCAASGFTFRRNAMRWYRQAPGKEWELVAAINFRDGSTYYADSLKGRFTISRDNAMIHVYLQMHSLKPEDSAVYYRAAVYYVRDRYDYWGQGTQETVSS | high polyreactivity
